Reference: publication PMC8445998 (Nature Communications, 2021)

Tests used:
Conditions in all cases: both partners purified
[1] = biological target: T1, His6-TF-SUMO-OsCOI1b (rice, UniProt Q60EH4 1-597); test: MST
T1 construct: also called His6-OsCOI1b
T1 sequence (looked up): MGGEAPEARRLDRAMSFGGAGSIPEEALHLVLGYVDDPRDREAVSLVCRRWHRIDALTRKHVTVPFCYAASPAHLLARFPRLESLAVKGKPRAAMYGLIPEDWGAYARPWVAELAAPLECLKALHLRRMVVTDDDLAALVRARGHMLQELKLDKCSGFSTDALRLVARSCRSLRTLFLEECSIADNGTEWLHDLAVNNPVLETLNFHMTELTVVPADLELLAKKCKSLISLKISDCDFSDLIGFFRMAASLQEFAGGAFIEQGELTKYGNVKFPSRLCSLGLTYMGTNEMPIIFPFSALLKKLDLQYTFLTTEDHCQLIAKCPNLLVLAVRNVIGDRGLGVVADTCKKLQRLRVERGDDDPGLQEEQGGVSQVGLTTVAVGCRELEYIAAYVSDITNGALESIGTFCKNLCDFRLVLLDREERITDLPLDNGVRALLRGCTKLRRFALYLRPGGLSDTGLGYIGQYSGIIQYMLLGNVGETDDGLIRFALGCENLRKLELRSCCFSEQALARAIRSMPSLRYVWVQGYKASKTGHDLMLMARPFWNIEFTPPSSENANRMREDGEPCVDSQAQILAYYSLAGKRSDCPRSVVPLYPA

[2] = biological target: T2, His6-TF-SUMO-tagged OsCOI1b^R9A (rice, UniProt Q60EH4 1-597, R9A); test: pull-down
T2 sequence (looked up): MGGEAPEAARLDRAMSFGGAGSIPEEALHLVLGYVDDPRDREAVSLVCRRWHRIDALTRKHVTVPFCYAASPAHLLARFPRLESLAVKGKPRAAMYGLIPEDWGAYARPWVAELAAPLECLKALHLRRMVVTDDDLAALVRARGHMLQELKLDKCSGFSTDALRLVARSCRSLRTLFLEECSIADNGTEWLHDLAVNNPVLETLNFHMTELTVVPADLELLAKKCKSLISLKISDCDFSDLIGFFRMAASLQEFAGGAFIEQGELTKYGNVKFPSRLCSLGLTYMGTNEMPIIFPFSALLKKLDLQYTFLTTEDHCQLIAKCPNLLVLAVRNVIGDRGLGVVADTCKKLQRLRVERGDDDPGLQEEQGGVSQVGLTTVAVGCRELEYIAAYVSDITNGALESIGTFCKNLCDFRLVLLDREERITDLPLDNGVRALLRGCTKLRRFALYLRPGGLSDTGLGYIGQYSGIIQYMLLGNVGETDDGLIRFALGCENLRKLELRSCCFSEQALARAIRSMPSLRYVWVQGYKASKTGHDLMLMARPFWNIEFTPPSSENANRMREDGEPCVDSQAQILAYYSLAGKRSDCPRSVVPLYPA

[3] = biological target: T3, His6-TF-SUMO-tagged OsCOI1b^R13A (rice, UniProt Q60EH4 1-597, R13A); test: pull-down
T3 sequence (looked up): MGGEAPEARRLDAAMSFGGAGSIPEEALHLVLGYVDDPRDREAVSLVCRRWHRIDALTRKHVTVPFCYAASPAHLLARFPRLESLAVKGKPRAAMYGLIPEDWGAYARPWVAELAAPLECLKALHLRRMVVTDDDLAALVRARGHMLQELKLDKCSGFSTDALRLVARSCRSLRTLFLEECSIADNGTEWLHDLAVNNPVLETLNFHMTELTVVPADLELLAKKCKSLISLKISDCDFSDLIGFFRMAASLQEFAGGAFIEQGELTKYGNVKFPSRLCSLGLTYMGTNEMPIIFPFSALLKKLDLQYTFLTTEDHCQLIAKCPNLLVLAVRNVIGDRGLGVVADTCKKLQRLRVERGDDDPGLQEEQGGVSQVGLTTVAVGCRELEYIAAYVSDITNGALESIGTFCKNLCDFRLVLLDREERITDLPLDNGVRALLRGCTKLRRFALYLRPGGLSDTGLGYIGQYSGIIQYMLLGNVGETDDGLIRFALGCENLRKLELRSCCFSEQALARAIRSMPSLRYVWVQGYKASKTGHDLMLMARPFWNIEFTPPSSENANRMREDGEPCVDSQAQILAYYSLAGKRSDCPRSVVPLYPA

[4] = biological target: T4, His6-TF-SUMO-tagged OsCOI1b^R10A (rice, UniProt Q60EH4 1-597, R10A); test: pull-down
T4 sequence (looked up): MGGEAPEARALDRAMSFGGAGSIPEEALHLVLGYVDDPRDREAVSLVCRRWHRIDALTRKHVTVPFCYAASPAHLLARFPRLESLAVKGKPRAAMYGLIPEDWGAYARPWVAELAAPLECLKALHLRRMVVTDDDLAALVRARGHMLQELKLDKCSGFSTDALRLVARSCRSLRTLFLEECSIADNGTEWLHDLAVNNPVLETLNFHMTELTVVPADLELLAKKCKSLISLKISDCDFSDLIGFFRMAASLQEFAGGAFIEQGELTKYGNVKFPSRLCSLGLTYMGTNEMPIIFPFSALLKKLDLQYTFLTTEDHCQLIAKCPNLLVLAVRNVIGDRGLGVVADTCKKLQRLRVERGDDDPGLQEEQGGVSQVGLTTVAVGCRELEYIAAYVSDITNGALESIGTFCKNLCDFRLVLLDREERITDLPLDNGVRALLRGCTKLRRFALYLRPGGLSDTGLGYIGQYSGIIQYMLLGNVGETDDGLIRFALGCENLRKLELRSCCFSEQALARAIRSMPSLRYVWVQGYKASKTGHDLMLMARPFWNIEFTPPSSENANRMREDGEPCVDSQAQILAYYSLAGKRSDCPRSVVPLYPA

| Binder | Kd [1] [nM] | binding result [2] | binding result [3] | binding result [4] |
| --- | --- | --- | --- | --- |
| His6-OSK1^S53D (natural protein, rice, UniProt Q6PL11 1-173, looked up) MAAEGEKKMITLKSSDGEEFEVEEAVAMESQTIRHMIEDDCADNGIPLPNVNDKILSKVIEYCNKHVHAAAAAASKAADDAASAAAAVPPPSGEDLKNWDADFVKVDQATLFDLILAANYLNIKGLLDLTCQTVADMIKGKTPEEIRKTFNIKNDFTPEEEEEIRRENQWAFE | 12.7 |  |  |  |
| GST-OSK1^S53D (natural protein, rice, UniProt Q6PL11 1-173, looked up, not shown: GST, N-terminal, kept) MAAEGEKKMITLKSSDGEEFEVEEAVAMESQTIRHMIEDDCADNGIPLPNVNDKILSKVIEYCNKHVHAAAAAASKAADDAASAAAAVPPPSGEDLKNWDADFVKVDQATLFDLILAANYLNIKGLLDLTCQTVADMIKGKTPEEIRKTFNIKNDFTPEEEEEIRRENQWAFE |  | binds | binds | binds |
| His6-OSK1 (natural protein, rice, UniProt Q6PL11 1-173, looked up) MAAEGEKKMITLKSSDGEEFEVEEAVAMESQTIRHMIEDDCADNGIPLPNVNSKILSKVIEYCNKHVHAAAAAASKAADDAASAAAAVPPPSGEDLKNWDADFVKVDQATLFDLILAANYLNIKGLLDLTCQTVADMIKGKTPEEIRKTFNIKNDFTPEEEEEIRRENQWAFE | 53.8 |  |  |  |
| GST-OSK1 (natural protein, rice, UniProt Q6PL11 1-173, looked up, not shown: GST, N-terminal, kept) MAAEGEKKMITLKSSDGEEFEVEEAVAMESQTIRHMIEDDCADNGIPLPNVNSKILSKVIEYCNKHVHAAAAAASKAADDAASAAAAVPPPSGEDLKNWDADFVKVDQATLFDLILAANYLNIKGLLDLTCQTVADMIKGKTPEEIRKTFNIKNDFTPEEEEEIRRENQWAFE |  | binds | binds | binds |
